Measurements taken from patent publication US20160289309A1.

Key:
[1] = molecular target: Tau in cerebrospinal fluid of cynomolgus monkeys (free Tau / extracellular Tau, eTau) (cynomolgus monkey (Macaca fascicularis)); test: estimate from a PK/PD model fitted to free eTau (ELISA) in CSF of cynomolgus monkeys dosed with hu-IPN002; not a direct binding assay
[2] = molecular target: Tau in cerebrospinal fluid of cynomolgus monkeys (free Tau / extracellular Tau, eTau) (cynomolgus monkey (Macaca fascicularis)); test: cell-based or functional assay

B1: hu-IPN002 (antibody, IgG4, V domains shown)
VH: EVHLVESGGALVKPGGSLRLSCAASGFSFSKYGMSWVRQAPGKGLEWVATISSSGSRTYYPDSVKGRFTISRDNAKNTLYLQMNSLRAEDTAMYYCSISWDGAMDYWGQGTTVTVSS
VL: DVVMTQSPLSLPVTLGQPASISCKSSQSIVHSNGNTYLEWYLQKPGQSPQLLVYKVSNRFSGVPDRFSGSGSGTDFTLKISRVEAEDVGTYYCFQGSLVPWAFGGGTKVEIK
Kd [1]: 0.16 nM
free eTau level in CSF between 8 and 168 hours, 20 mg/kg dose (% of baseline) [2]: 1.35 to 7.44
free eTau level in CSF between 48 and 96 hours, 5 mg/kg dose (% of baseline) [2]: 17.3 to 21
maximal reduction of CSF free eTau, single 5 mg/kg IV dose in cynomolgus monkeys [2]: 83%
maximal reduction of CSF free eTau, single 20 mg/kg IV dose in cynomolgus monkeys [2]: 99%
